Read-outs that look alike come from different tables or passages of the source.
B1: anti-PDL1 antibody C5H9v2 (antibody, V domains shown)
VH: EVQLLESGGGLVQPGGSLRLSCAASGFTFSSYAMSWVRQAPGKGLEWVSSIWRNGIVTVYADSVKGRFTISRDNSKNTLYLQMNSLRAEDTAVYYCAKWSAAFDYWGQGTLVTVSS
VL: DIQMTQSPSSLSASVGDRVTITCRASQSISSYLNWYQQKPGKAPKLLIYAASSLQSGVPSRFSGSGSGTDFTLTISSLQPEDFATYYCQQDNGYPSTFGGGTKVEIKR
B2: anti-PDL1 antibody C5H9 (antibody, V domains shown)
VH: EVQLLESGGGLVQPGGSLRLSCAASGFTFSSYAMSWVRQAPGKGLEWVSSIWRNGIVTVYADSVKGRFTISRDNSKNTLYLQMNSLRAEDTAVYYCAKWSAAFDYWGQGTLVTVSS
VL: DIQMTQSPSSLSASVGDRVTITCRASQSISSYLNWYQQKPGKAPKLLIYYASTLQSGVPSRFSGSGSGTDFTLTISSLQPEDFATYYCQQDNGYPSTFGQGTKVEIKR
B3: C5H9 mIgG2a (antibody, V domains shown)
VH: EVQLLESGGGLVQPGGSLRLSCAASGFTFSSYAMSWVRQAPGKGLEWVSSIWRNGIVTVYADSVKGRFTISRDNSKNTLYLQMNSLRAEDTAVYYCAKWSAAFDYWGQGTLVTVSS
VL: DIQMTQSPSSLSASVGDRVTITCRASQSISSYLNWYQQKPGKAPKLLIYYASTLQSGVPSRFSGSGSGTDFTLTISSLQPEDFATYYCQQDNGYPSTFGQGTKVEIKR
B4: anti-PDL1 activatable antibody PL07-2001-C5H9v2 (antibody)
VH: EVQLLESGGGLVQPGGSLRLSCAASGFTFSSYAMSWVRQAPGKGLEWVSSIWRNGIVTVYADSVKGRFTISRDNSKNTLYLQMNSLRAEDTAVYYCAKWSAAFDYWGQGTLVTVSS
VL: QGQSGSGIALCPSHFCQLPQTGGGSSGGSGGSGGISSGLLSGRSDNHGGSDIQMTQSPSSLSASVGDRVTITCRASQSISSYLNWYQQKPGKAPKLLIYAASSLQSGVPSRFSGSGSGTDFTLTISSLQPEDFATYYCQQDNGYPSTFGGGTKVEIKR

Experiments:
[1] = target: T1, cynomolgus monkey (cyno) PDL1-Fc (Sino biological) (cynomolgus monkey, UniProt G7PSE7 19-239); assay: ELISA
[2] = target: T2, mouse PDL1-Fc (R & D Systems) (mouse, UniProt Q9EP73 19-238); assay: ELISA
[3] = target: T3, human PDL1-Fc (R & D Systems) (human, UniProt Q9NZQ7 19-239); assay: ELISA
human PDL1 (R&D Systems) [4] = target: T4, human PDL1 (R&D Systems) (human, UniProt Q9NZQ7 19-239); assay: ELISA blocking of human PD-1 binding to PDL1; hPD-1 blockade
human PDL1 (R&D Systems) [5] = target: T4, human PDL1 (R&D Systems); assay: ELISA blocking of human B7-1 binding to PDL1; hB7-1 blockade
[6] = target: T5, cyno PDL1 (adsorbed in blockade assays) (cynomolgus monkey, UniProt G7PSE7 19-239); assay: ELISA blocking of cyno B7-1 binding to PDL1; cyno B7-1 blockade
[7] = target: T1, cynomolgus monkey (cyno) PDL1-Fc (Sino …); assay: ELISA; remark: listed apart in the source
[8] = target: T2, mouse PDL1-Fc (R & D Systems); assay: ELISA; remark: listed apart in the source
[9] = target: T3, human PDL1-Fc (R & D Systems); assay: ELISA; remark: listed apart in the source
[10] = target: T5, cyno PDL1 (adsorbed in blockade assays); assay: ELISA blocking of cyno PD-1 binding to PDL1; cyno PD1 blockade

T5 sequence (G7PSE7 entry or part of it): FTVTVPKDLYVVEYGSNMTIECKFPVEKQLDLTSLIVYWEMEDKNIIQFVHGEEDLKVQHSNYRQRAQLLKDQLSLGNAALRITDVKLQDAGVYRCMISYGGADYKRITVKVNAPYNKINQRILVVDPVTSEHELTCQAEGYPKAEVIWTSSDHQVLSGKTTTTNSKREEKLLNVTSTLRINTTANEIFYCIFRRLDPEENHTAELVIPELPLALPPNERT
T1 sequence (G7PSE7 entry or part of it): as above
T2 sequence (Q9EP73 19-238): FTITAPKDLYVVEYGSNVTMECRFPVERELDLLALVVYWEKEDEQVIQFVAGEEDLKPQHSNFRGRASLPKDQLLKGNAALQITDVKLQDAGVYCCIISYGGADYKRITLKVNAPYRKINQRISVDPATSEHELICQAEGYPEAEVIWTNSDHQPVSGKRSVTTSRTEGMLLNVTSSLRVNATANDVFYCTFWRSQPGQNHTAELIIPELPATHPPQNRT
T3 sequence (Q9NZQ7 19-239): as the sequence (G7PSE7 entry or part of it) above, with T33A, S34A, N62S, Q68R, R82Q, L173F, A185T, I192T, L215H counted along it
T4 sequence (Q9NZQ7 19-239): as the sequence (G7PSE7 entry or part of it) above, with T33A, S34A, N62S, Q68R, R82Q, L173F, A185T, I192T, L215H counted along it

Binder	Kd [1]	Kd [2]	Kd [3]	IC50 (human PDL1 (R&D Systems) [4])	IC50 (human PDL1 (R&D Systems) [5])	IC50 [6]	Kd [7]	Kd [8]	Kd [9]	IC50 [10]
B1	0.544 nM	0.464 nM	0.272 nM	0.7 nM	0.5 nM	0.1 nM	–	–	–	–
B2	0.398 nM	0.475 nM	0.286 nM	–	–	–	–	–	–	–
B3	–	–	–	–	–	–	0.399 nM	0.666 nM	0.515 nM	–
B4	–	–	–	39.8 nM	11.7 nM	9.6 nM	–	–	–	7 nM

— patent US20190382493A1 (published 2019)
